T1: S. cerevisiae Spp381 (pre-mRNA-splicing factor suppressor of prp38-1), full-length wild type (S. cerevisiae, UniProt P38282 1-291)
T1 construct: Spp381, S. cerevisiae, UniProt P38282, ORF amplified from genomic DNA; also called scSpp381; scSpp381^FL; source: E. coli Rosetta 2 (DE3) or BL21 (DE3) RIL, purified (Ni-NTA, TEV cleavage, SEC); not shown: His6, N-terminal, cleaved
T1 sequence (looked up): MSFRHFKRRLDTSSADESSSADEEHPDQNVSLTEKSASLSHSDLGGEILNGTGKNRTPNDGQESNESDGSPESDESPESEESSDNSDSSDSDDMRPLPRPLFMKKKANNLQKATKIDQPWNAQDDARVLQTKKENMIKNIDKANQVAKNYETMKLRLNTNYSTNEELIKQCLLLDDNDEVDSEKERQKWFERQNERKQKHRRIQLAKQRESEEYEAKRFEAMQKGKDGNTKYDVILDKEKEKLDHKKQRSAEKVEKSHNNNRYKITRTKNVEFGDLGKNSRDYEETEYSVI

B1: S. cerevisiae Snu23 (23 kDa small nuclear ribonucleoprotein component) residues 116-169 (domain or fragment, UniProt Q12368 116-169, looked up)
chain: LIIDIRDNDDVPQEEFELCYHNLIKDFVEVRSMETQSKRKRLLDTDVEKAKKVA
B2: S. cerevisiae Spp381 residues 177-248 (domain or fragment, UniProt P38282 177-248, looked up)
chain: NDEVDSEKERQKWFERQNERKQKHRRIQLAKQRESEEYEAKRFEAMQKGKDGNTKYDVILDKEKEKLDHKKQ
notes: also called scSpp381^177-248; source: E. coli Rosetta 2 (DE3) or BL21 (DE3) RIL, purified (Ni-NTA, TEV cleavage, SEC); not shown: His6, N-terminal, cleaved
B3: S. cerevisiae Prp38 (pre-mRNA processing factor 38 domain containing protein), full-length wild type (natural protein, UniProt Q00723 1-242, looked up)
chain: MAVNEFQVESNISPKQLNNQSVSLVIPRLTRDKIHNSMYYKVNLSNESLRGNTMVELLKVMIGAFGTIKGQNGHLHMMVLGGIEFKCILMKLIEIRPNFQQLNFLLNVKNENGFDSKYIIALLLVYARLQYYYLNGNNKNDDDENDLIKLFKVQLYKYSQHYFKLKSFPLQVDCFAHSYNEELCIIHIDELVDWLATQDHIWGIPLGKCQWNKIYNSDEESSSSESESNGDSEDDNDTSSES
notes: Prp38, S. cerevisiae, ORF amplified from genomic DNA; also called scPrp38; source: E. coli Rosetta 2 (DE3) or BL21 (DE3) RIL, purified (Ni-NTA, TEV cleavage, SEC); not shown: His6, N-terminal, cleaved
B4: Human MFAP1 (microfibrillar-associated protein 1) residues 267-344 (domain or fragment)
chain: not shown
notes: the minimal fragment used for crystallization of the hsPrp38-hsMFAP1 complex; source: E. coli Rosetta 2 (DE3) or BL21 (DE3) RIL, purified (Ni-NTA, TEV cleavage, SEC); not shown: His6, N-terminal, cleaved

Experiments:
Conditions in all cases: both partners purified
[1] = biological target: B3; assay: SEC; analytical gel filtration of three proteins (scSnu23 116-169, scPrp38, scSpp381 177-248) on a Superdex 75 10/300 column; fractions by SDS-PAGE
[2] = biological target: B3; assay: SEC; analytical gel filtration of two proteins: 50 uM each, equimolar, incubated 30 min at 4 °C in SEC buffer (10 mM Tris-HCl pH 8.0, 300 mM NaCl, 0.1 mM EDTA, 1 mM DTT); Superdex 75 or Superdex 200 Increase columns at 4 °C; peak fractions by SDS-PAGE
[3] = biological target: T1, S. cerevisiae Spp381 (pre-mRNA-splicing …); assay: as above

binding result [2]	Binder	other results
	B1	binding result [1]: binds
binds	B2	
	B3	binding result [3]: binds
binds	B4	
